The text below walks through data of patent publication US20030124132A1 (University of Texas, published 2003).

Series [1] addresses I-A^d MHC Class II antigen (mouse) (UniProt P04228). Nature of the series: FACS. In general terms: Flow cytometry measures light scatter and fluorescence of single cells or particles in a stream.
In series [2] the test system is bEnd.3 endothelial cells. Nature of the series: PS surface expression on endothelial cells exposed to H2O2 (anti-PS IgM staining). It counts as cell-based, mouse. The procedure: (§1) Mouse bEnd.3 endothelial cells were seeded at an initial density of 50,000 cells/well. Twenty-fours later cells were incubated with increasing concentrations of H2O2 (from 10 μM to 500 μM) for 1 hour at 37° C. or left untreated. At the end of the incubation, cells were washed 3 times with PBS containing 0.2% gelatin and fixed with 0.25% glutaraldehyde. Identical wells were either stained with anti-PS IgM or trypsinized and evaluated for viability by the Trypan Blue exclusion test. For the anti-PS staining, after blocking with 2% gelatin for 10 min., cells were incubated with 2 μg/ml of anti-PS antibody, followed by detection with anti-mouse IgM-HRP conjugate.

The test system of series [3] is human umbilical vein endothelial cells (HUVEC). To be noted: cited from earlier work.
Series [4] concerns bEnd.3 endothelial cells. Nature of the series: Viability of endothelial cells exposed to H2O2 (Trypan Blue exclusion). It counts as cell-based, mouse. How it is done: as §1
Series [5] has as its system cancer patients having progressive disease. To be noted: progressive disease before treatment; cited from earlier work.
For series [6], the target named is I-A^d MHC Class II antigen (mouse) (UniProt P04228). Nature of the series: cell-based or functional assay.
For series [7], the system named is tissue factor on HUVEC cells. Put plainly: FACS analysis of tissue factor expression on endothelial cells. It counts as cell-based, human. To be noted: TNFα 500 U/ml, LPS 10 μg/ml, VEGF 1 nM, alone or in combination, 6 h. How it is done:
To analyze tissue factor expression on the surface of endothelial cells, HUVEC cells were incubated with TNFα (500 U/ml), LPS (10 μg/ml) or vascular endothelial growth factor (VEGF, 1 nM) alone or in combination for 6 h at 37°. Cells were then detached and stained for surface expression of human tissue factor with a sheep-anti-human tissue factor antibody (Haemochrom, Essen, Germany) and an appropriate FITC-conjugated secondary antibody. Fluorescent cells were detected on a flow cytometer (Becton Dickinson, San Jose, Calif.).

The subject of a further series is TNFα. To be noted: cited from earlier work.
Series [8] relates to A20 lymphoma cells (I-A^d positive), mouse or human plasma. Put plainly: In vitro coagulation assay on A20 cells with capture bispecific antibody B21-2/10H10. It counts as cell-based. The following applies: for concentration at which plasma coagulated in 50 seconds: bound via B21-2/10H10 to A20 cells, separate studies per block; for coagulation inducing activity lower than reference: versus monomer / unconjugated form or tTF219.

Series [9] has as its system Factor X to Xa conversion on A20 cells. Put plainly: Factor Xa production assay on A20 cells. It counts as cell-based, mouse. To be noted: Factors II, VII, IX and X present.
For series [10], the system named is L540 Hodgkin tumor blood vessels. Put plainly: Annexin V inhibition of coaguligand-induced thrombosis in vivo. On the set-up: species or system SCID mice. To be noted: 100 μg Annexin V alone or 2 hours before 40 μg coaguligand. The procedure: The ability of Annexin V to inhibit coaguligand-induced thrombosis in vivo was examined in L540 Hodgkin-bearing SCID mice.
Four hours after the last injection mice were anesthetized and perfused with heparinized saline. Tumors were removed, fixed with 4% formalin, paraffin-embedded and stained with hematoxylene-eosin. The number of thrombosed and non-thrombosed blood vessels were counted and the percentage of thrombosis was calculated.
Groups of tumor-bearing mice were treated with one of the control or test reagents. […] Identical results were obtained in both mice per group.

Series [11] has as its system IL-1α-stimulated bEnd.3 cells. Nature of the series: Chromogenic assay of Factor Xa formation by cell-bound coaguligand, with Annexin V. It counts as cell-based, mouse. To be noted: Annexin V 10 μg per ml. The procedure:
The ability of Annexin V to affect Factor Xa formation induced by coaguligand was determined by a chromogenic assay. […] Annexin V was added at concentrations ranging from 0.1 to 10 μg/ml and cells were incubated for 30 min. before addition of diluted Proplex T. The amount of Factor Xa generated in the presence or absence of Annexin V was determined. Each treatment was performed in duplicate and repeated at least twice.

The target in series [12] is T1, tissue factor on the surface of stimulated 2F2B mouse endothelial cells (mouse, UniProt P20352 29-294).
T1 construct: whole, on cells; also called cell-surface tissue factor; endogenous TF
T1 sequence (looked up): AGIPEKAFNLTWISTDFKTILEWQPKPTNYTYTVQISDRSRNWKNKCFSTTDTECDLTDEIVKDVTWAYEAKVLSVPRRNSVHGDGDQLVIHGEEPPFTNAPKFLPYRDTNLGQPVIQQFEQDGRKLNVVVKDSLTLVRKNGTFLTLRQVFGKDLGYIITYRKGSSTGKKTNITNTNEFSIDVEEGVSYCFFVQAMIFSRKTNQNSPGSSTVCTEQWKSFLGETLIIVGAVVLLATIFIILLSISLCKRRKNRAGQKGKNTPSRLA
Put plainly: FACS on 2F2B mouse endothelial cells stimulated with LPS or TNF alpha, detection with sheep anti-human TF antibody; also a cell bound coagulation assay.

The molecule B21-2 anti-I-A^d antibody showed a fold higher affinity than M5/114.15.2 in series [1] of 5 to 10 fold.
Broadly, the viability is a per cent measure of how many cells are alive, often set against a control. As usually defined, the cell viability is a per cent measure of how many cells are alive, often set against a control. High values mean less harm to the cells, low ones more harm to the cells. With `OO` [H2O2], the “cells with PS at the cell surface” value in the series with bEnd.3 endothelial cells [2] (H2O2 as low as 20 μM (lower than 100 μM)) is listed as “about 50%”. Moreover, the “cells with PS translocation” value in the series with bEnd.3 endothelial cells [2] (H2O2 higher than 100 μM, 1 hour) is about 90%. Moreover, in series [3] (15 μM H2O2), the viability is 90 to 95%. In addition, in [3] (1500 μM H2O2), the viable cells was 0%-50%. Besides, the cell viability with bEnd.3 endothelial cells [4] (H2O2 higher than 100 μM) is reported as 50-60%; in the series with bEnd.3 endothelial cells [4] (low levels of H2O2, identical to untreated cells), 95%.
`NC(=O)c1nnn(Cc2cc(Cl)c(C(=O)c3ccc(Cl)cc3)c(Cl)c2)c1N` [CAI, carboxyamidotriazole]: the “cancer patients with disease stabilization” value in [5] is recorded as 49%.
B21-2/10H10 bispecific antibody: the time for fibrin strands to form after adding mouse plasma to A20 cells in [6] amounted to 36 s.
Regarding VEGF, in [7], the “tissue factor expression on the surface of HUVEC” value was “upregulated tissue factor expression”.
As to `Cc1ccc2c(=O)c3cccc(CC(=O)O)c3oc2c1C` [DMXAA], in the series on TNFα, the “less effective than endotoxin in inducing TNFα” value is listed as 20 fold.

B1: tTF221-cys-C′: H6-tTF221-cys-C′ without the (His)6 tag (protein)
chain: GSGTTNTVAAYNLTWKSTNFKTILEWEPKPVNQVYTVQISTKSGDWKSKCFYTTDTECDLTDEIVKDVKQTYLARVFSYPAGNVESTGSAGEPLYENSPEFTPYLETNLGQPTIQSFEQVGTKVNVTVEDERTLVRRNNTFLSLRDVFGKDLIYTLYYWKSSSSGKKTAKTNTNEFLIDVDKGENYCFSVQAVIPSRTVNRKSTDSPVECMGQEKGEFREIFC
For B1, the “concentration at which plasma coagulated in 50 seconds” value (“concentration” for short) in series [8] was 0.5 nM.

B2: IgG-H6-N′-cys-tTF219: one molecule of IgG linked via SMPT to one or two molecules of tTF (conjugate)
chain: HHHHHHAMALVPRGSCGTTNTVAAYNLTWKSTNFKTILEWEPKPVNQVYTVQISTKSGDWKSKCFYTTDTECDLTDEIVKDVKQTYLARVFSYPAGNVESTGSAGEPLYENSPEFTPYLETNLGQPTIQSFEQVGTKVNVTVEDERTLVRRNNTFLSLRDVFGKDLIYTLYYWKSSSSGKKTAKTNTNEFLIDVDKGENYCFSVQAVIPSRTVNRKSTDSPVECMGQEKGEFRE
modifications: left off: large carriers
In the case of B2, the “less active than H6-N′-cys-tTF219 at inducing Xa formation” value in [9] is given as 2 fold. For the same molecule, in [8], the “concentration” value is 5 nM and the “coagulation inducing activity lower than reference” value amounted to 5 fold.

B3: Fab′-H6-N′-cys-tTF219: Fab′ fragment disulfide-linked to H6-N′-cys-tTF219 (conjugate)
chain: B2 chain
modifications: left off: another chain or arm of the molecule; large carriers
Turning to B3, the “activity at inducing Xa formation relative to H6-N′-cys-tTF219” value in series [9] is “as active as H6-N′-cys-tTF219 itself”.

B4: Annexin V: binds to PS with high affinity (protein, UniProt P08758 2-320, looked up)
Annexin A5: AQVLRGTVTDFPGFDERADAETLRKAMKGLGTDEESILTLLTSRSNAQRQEISAAFKTLFGRDLLDDLKSELTGKFEKLIVALMKPSRLYDAYELKHALKGAGTNEKVLTEIIASRTPEELRAIKQVYEEEYGSSLEDDVVGDTSGYYQRMLVVLLQANRDPDAGIDEAQVEQDAQALFQAGELKWGTDEEKFITIFGTRSVSHLRKVFDKYMTISGFQIEETIDRETSGNLEQLLLAVVKSIRSIPAYLAETLYYAMKGAGTDDHTLIRVMVSRSEIDLFNIRKEFRKNFATSLYSMIKGDTSGDYKKALLLLCGEDD
Take B4: the “effect on tumor thrombosis / morphology” value in series [10] is listed as “did not alter tumor morphology”. The “inhibition of factor Xa production” value in series [11] turned out to be 58%.

B5: H6-tTF220-cys-C′: tTF219 with Ile-Cys after amino acid 219, (His)6 (protein)
chain: HHHHHHAMALVPRGSGTTNTVAAYNLTWKSTNFKTILEWEPKPVNQVYTVQISTKSGDWKSKCFYTTDTECDLTDEIVKDVKQTYLARVFSYPAGNVESTGSAGEPLYENSPEFTPYLETNLGQPTIQSFEQVGTKVNVTVEDERTLVRRNNTFLSLRDVFGKDLIYTLYYWKSSSSGKKTAKTNTNEFLIDVDKGENYCFSVQAVIPSRTVNRKSTDSPVECMGQEKGEFRE
For the molecule B5, the “concentration” value in [8] is 0.5 nM.

B6: H6-tTF221-cys-C′ dimer: chemically conjugated disulfide dimer of H6-tTF221-cys-C′ (protein)
chain: B5 chain
For B6, in series [8], the “concentration” value was 4 nM and the “coagulation inducing activity lower than reference” value is 4 fold.

B7: recombinant, depyrogenated truncated Tissue Factor (amino acids 1-219) of Example X (other, human, UniProt P13726 33-251, looked up)
chain: SGTTNTVAAYNLTWKSTNFKTILEWEPKPVNQVYTVQISTKSGDWKSKCFYTTDTECDLTDEIVKDVKQTYLARVFSYPAGNVESTGSAGEPLYENSPEFTPYLETNLGQPTIQSFEQVGTKVNVTVEDERTLVRRNNTFLSLRDVFGKDLIYTLYYWKSSSSGKKTAKTNTNEFLIDVDKGENYCFSVQAVIPSRTVNRKSTDSPVECMGQEKGEFRE
notes: also called tTF; endotoxin-free tTF
Regarding B7, the binding result in series [12] is “no binding”.

B8: tTF220-cys-C′: H6-tTF220-cys-C′ without the (His)6 tag (protein)
chain: GSGTTNTVAAYNLTWKSTNFKTILEWEPKPVNQVYTVQISTKSGDWKSKCFYTTDTECDLTDEIVKDVKQTYLARVFSYPAGNVESTGSAGEPLYENSPEFTPYLETNLGQPTIQSFEQVGTKVNVTVEDERTLVRRNNTFLSLRDVFGKDLIYTLYYWKSSSSGKKTAKTNTNEFLIDVDKGENYCFSVQAVIPSRTVNRKSTDSPVECMGQEKGEFREIC
B8: the “concentration” value in series [8] was 0.5 nM.

B9: H6-tTF219-cys-C′: tTF with (His)6 and a Cys after amino acid 219 (protein)
chain: HHHHHHAMALVPRGSGTTNTVAAYNLTWKSTNFKTILEWEPKPVNQVYTVQISTKSGDWKSKCFYTTDTECDLTDEIVKVKQTYLARVFSYPAGNVESTGSAGEPLYENSPEFTPYLETNLGQPTIQSFEQVGTKVNVTVEDRTLVRRNNTFLSLRDVFGKDLIYTLYYWKSSSSGKKTAKTNTNEFLIDVDKGENYCFSVQAVIPSRTVNRKSTDSPVECMGQEKGEFREC
As for B9, in series [8], the “concentration” value turned out to be 3 nM.
